Columns and labels:
human CD40 on cells [1] = biological target: T1, human CD40 on cells (human, UniProt P25942 21-277); test: cell-based or functional assay
[2] = biological target: rhesus CD40 on HEK293H reporter cells (rhesus, UniProt F6SNI1 21-278); test: cell-based or functional assay
recombinant human CD40 = biological target: T2, recombinant human CD40 (human, UniProt P25942 21-193); test: SPR (Biacore 8K+), antibody captured on protein A/G, recombinant hCD40 as analyte, 1:1 model
T2 construct: Soluble analyte in SPR; also called Recombinant hCD40; hCD40
Description: Protein A/G was immobilized to the surface of a CM5 series S chip using amine chemistry. Test compounds were then captured to the surface between 120 RU and 170 RU. Recombinant hCD40 was diluted 2-fold from 300 nM to 2.34 nM in HBS-EP+buffer. […] Glycine (10 mM) pH 1.5 was used to regenerate the chip surface. The binding affinity (KD) was determine using a 1:1-binding model by a global fit of all the concentrations.

human CD40 on cells [3] = biological target: T1, human CD40 on cells; test: flow cytometry on human primary naive B-cells, 1 h at 4 °C, AF488-conjugated secondary antibody (MFI)
Description: (§1) Naive B-cell were plated at a density of […] cells per well in 96-well plates and incubated with CD40 agonists, hexameric ligand and anti-CD40 antibodies, for 1 hour at 4° C.

[4] = biological target: T3, cynomolgus CD40 on HEK293 cells (cynomolgus, UniProt G7PG38 21-278); test: flow cytometry on cynomolgus CD40-expressing HEK293 cells, 1 h at 4 °C, AF488-conjugated secondary antibody (MFI)
T3 construct: whole, on cells; also called cyno CD40; cynoCD40-expressing HEK293 cells
Description: Cyno CD40-expressing HEK293 cells were plated at a density of 50×10³ cells per well in 96-well plates and incubated with serially diluted concentrations of CD40 agonists, hexameric ligand and anti-CD40 antibodies, for 1 hour at 4° C. Cells were then harvested and incubated with AF488-conjugated secondary antibody before flow cytometry analysis using a Fortessa X20.
Data from the flow cytometer was analyzed using FlowJo (V10.8.1), then the binding curves, the Eₘₐₓ, and EC₅₀ values were plotted using GraphPad Prism (V9.1.2).

human CD40 on cells [5] = biological target: T1, human CD40 on cells; test: cell-based or functional assay; remark: listed apart in the source
human CD40 on cells [6] = biological target: T1, human CD40 on cells; test: cell-based or functional assay; remark: listed apart in the source
human CD40 on cells [7] = biological target: T1, human CD40 on cells; test: flow cytometry on human primary naive B-cells, 1 h at 4 °C, AF488-conjugated secondary antibody (MFI); remark: listed apart in the source
Description: as §1

human CD40 on cells [8] = biological target: T1, human CD40 on cells; test: flow cytometry on U-2 OS/NFκB cells (further experiment), APC-conjugated anti-human IgG secondary antibody (median fluorescence intensity)
Description: (§2) Briefly, cultured U-2 OS/NFκB cells were seeded in 96-well plates at 1.0×10⁵ cells/well and incubated with serially-diluted test antibodies for 60 minutes at 4° C. in 2% FBS/dPBS buffer. The cells were then washed twice with dPBS and further incubated with secondary allophycocyanin (APC)-conjugated AffiniPure F(ab′)₂ fragment donkey anti-human IgG (H+L) antibody (Jackson ImmunoResearch, Ref. 709-136-149) (1:500) for 30 minutes at 4° C. Finally, the cells were washed twice with dPBS and suspended in FACS buffer for flow cytometry analysis. MFI values vs concentrations were analyzed by FlowJo and data were further fitted with four-parameter non-linear regression to get EC₅₀ values by GraphPad Prism software.

human CD40 on cells [9] = biological target: T1, human CD40 on cells; test: cell-based or functional assay; remark: listed apart in the source
human CD40 on cells [10] = biological target: T1, human CD40 on cells; test: cell-based or functional assay; remark: listed apart in the source
human CD40 on cells [11] = biological target: T1, human CD40 on cells; test: flow cytometry on U-2 OS/NFκB cells
Description: as §2

human CD40 on cells [12] = biological target: T1, human CD40 on cells; test: flow cytometry on Raji cells; EC50 relative to mAb1
Description: as §2, with “Raji” for “cultured U-2 OS/NFκB”

human CD40 on cells [13] = biological target: T1, human CD40 on cells; test: flow cytometry on U-2 OS/NFκB cells; EC50 relative to mAb1
Description: as §2

human CD40 on cells [14] = biological target: T1, human CD40 on cells; test: flow cytometry on Raji cells; binding to Raji cells, flow cytometry
Description: as §2, with “Raji” for “cultured U-2 OS/NFκB”

T1 sequence (P25942 21-277 limits assumed): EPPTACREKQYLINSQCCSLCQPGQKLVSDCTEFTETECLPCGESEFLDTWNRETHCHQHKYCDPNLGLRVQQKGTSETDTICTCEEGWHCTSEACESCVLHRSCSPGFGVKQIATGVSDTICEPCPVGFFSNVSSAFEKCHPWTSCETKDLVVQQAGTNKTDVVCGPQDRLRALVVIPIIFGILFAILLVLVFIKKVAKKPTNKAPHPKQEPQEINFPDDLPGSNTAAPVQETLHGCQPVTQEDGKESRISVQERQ
T2 sequence (P25942 21-193 limits assumed): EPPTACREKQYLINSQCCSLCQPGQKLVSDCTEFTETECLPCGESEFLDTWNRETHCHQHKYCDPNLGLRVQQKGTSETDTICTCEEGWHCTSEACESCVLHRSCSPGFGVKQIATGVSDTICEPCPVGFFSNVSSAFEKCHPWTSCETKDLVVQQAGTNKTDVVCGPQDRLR

EC50, NFkB-luciferase reporter assay, human NFkB-Luc2P/U-2 OS cells (human CD40 on cells [1]) | Top, NFkB-luciferase reporter assay, human NFkB-Luc2P/U-2 OS cells (human CD40 on cells [1]) | EC50, luciferase reporter assay, HEK293H rhesus CD40 reporter cells [2] | Top, luciferase reporter assay, HEK293H rhesus CD40 reporter cells [2] | Kd (recombinant human CD40) | koff (recombinant human CD40) | kon (recombinant human CD40) | EC50 (read off the curve) (human CD40 on cells [3]) | EC50 (read off the curve) [4] | EC50, CD83 expression, B-cells of hCD40 KI mice (human CD40 on cells [5]) | EC50, CD86 expression, B-cells of hCD40 KI mice (human CD40 on cells [5]) | EC50, CD83 expression, MoDC maturation assay (human CD40 on cells [6]) | EC50, IL-8 release, MoDC maturation assay (human CD40 on cells [6]) | EC50 (read off the curve) (human CD40 on cells [7]) | EC50 (read off the curve) (human CD40 on cells [8]) | Binder | also measured
0.44 nM | 48.9 nM | 0.59 nM | 3.54 nM | 91 nM | 0.0041 s⁻¹ | 45000 M⁻¹ s⁻¹ | ~5 nM | ~2 nM |  |  |  |  |  |  | mAb3 (Y32K) (antibody, human IgG2, kappa, V domains shown, Mutant of AbC1 with the same constant regions (IgG2)) VH: QVQLVQSGAEVKKPGASVKVSCKASGYTFTGKYMHWVRQAPGQGLEWMGWINPDSGGTNYAQKFQGRVTMTRDTSISTAYMELNRLRSDDTAVYYCARDQPLGYCTNGVCSYFDYWGQGTLVTVSS VL: DIQMTQSPSSVSASVGDRVTITCRASQGIYSWLAWYQQKPGKAPNLLIYTASTLQSGVPSRFSGSGSGTDFTLTISSLQPEDFATYYCQQANIFPLTFGGGTKVEIKR | 
1.43 nM | 16.2 nM | 0.09 nM | 1.91 nM | 18 nM | 0.0019 s⁻¹ | 110000 M⁻¹ s⁻¹ | ~4 nM | ~1 nM | 0.034 nM | 0.011 nM | 1.02 nM | 1.92 nM | ~1 nM | ~2 nM | AbC1 (antibody, human IgG2, kappa, V domains shown, Human IgG2; also called parental antibody; parental AbC1 antibody) VH: not shown VL: DIQMTQSPSSVSASVGDRVTITCRASQGIYSWLAWYQQKPGKAPNLLIYTASTLQSGVPSRFSGSGSGTDFTLTISSLQPEDFATYYCQQANIFPLTFGGGTKVEIKR | 
0.52 nM | 53.6 nM | 0.49 nM | 3.91 nM | 65 nM | 0.0034 s⁻¹ | 52000 M⁻¹ s⁻¹ |  | ~2 nM | 0.051 nM | 0.031 nM | 0.49 nM | 0.21 nM | ~2 nM | ~2 nM | mAb1 (Y32K/S77A) (antibody, human IgG2, kappa, Mutant of AbC1 with the same constant regions (IgG2); also called mAb1 double mutant; mAb1 (without masking moiety)) heavy: QVQLVQSGAEVKKPGASVKVSCKASGYTFTGKYMHWVRQAPGQGLEWMGWINPDSGGTNYAQKFQGRVTMTRDTSIATAYMELNRLRSDDTAVYYCARDQPLGYCTNGVCSYFDYWGQGTLVTVSSASTKGPSVFPLAPCSRSTSESTAALGCLVKDYFPEPVTVSWNSGALTSGVHTFPAVLQSSGLYSLSSVVTVPSSNFGTQTYTCNVDHKPSNTKVDKTVERKCCVECPPCPAPPVAGPSVFLFPPKPKDTLMISRTPEVTCVVVDVSHEDPEVQFNWYVDGVEVHNAKTKPREEQFNSTFRVVSVLTVVHQDWLNGKEYKCKVSNKGLPAPIEKTISKTKGQPREPQVYTLPPSREEMTKNQVSLTCLVKGFYPSDIAVEWESNGQPENNYKTTPPMLDSDGSFFLYSKLTVDKSRWQQGNVFSCSVMHEALHNHYTQKSLSLSPGK light: DIQMTQSPSSVSASVGDRVTITCRASQGIYSWLAWYQQKPGKAPNLLIYTASTLQSGVPSRFSGSGSGTDFTLTISSLQPEDFATYYCQQANIFPLTFGGGTKVEIKRTVAAPSVFIFPPSDEQLKSGTASVVCLLNNFYPREAKVQWKVDNALQSGNSQESVTEQDSKDSTYSLSSTLTLSKADYEKHKVYACEVTHQGLSSPVTKSFNRGEC | EC50, luciferase reporter assay in U-2 OS/NFκB cells (human CD40 on cells [9]): 0.238 nM; Relative masking efficacy, luciferase reporter assay in U-2 OS/NFκB cells (human CD40 on cells [9]): 1 fold; EC50, CD86 expression, primary human B-cell activation assay (human CD40 on cells [10]): 0.175 nM; Relative masking efficacy, CD86 expression, primary human B-cell activation assay (human CD40 on cells [10]): 1 fold; Relative masking efficacy, CD83 expression, B-cells of hCD40 KI mice (human CD40 on cells [5]): 1 fold; Relative masking efficacy, CD86 expression, B-cells of hCD40 KI mice (human CD40 on cells [5]): 1 fold; EC50 (human CD40 on cells [11]): 1.5 nM; Relative masking efficacy (human CD40 on cells [12]): 1 fold; Relative masking efficacy (human CD40 on cells [13]): 1 fold; EC50 (human CD40 on cells [14]): 1.34 nM
0.54 nM | 45.2 nM |  |  |  |  |  |  |  |  |  |  |  | ~2 nM |  | mAb2 (Y32K/S77P) (antibody, human IgG2, kappa, V domains shown, Mutant of AbC1 with the same constant regions (IgG2)) VH: QVQLVQSGAEVKKPGASVKVSCKASGYTFTGKYMHWVRQAPGQGLEWMGWINPDSGGTNYAQKFQGRVTMTRDTSIPTAYMELNRLRSDDTAVYYCARDQPLGYCTNGVCSYFDYWGQGTLVTVSS VL: DIQMTQSPSSVSASVGDRVTITCRASQGIYSWLAWYQQKPGKAPNLLIYTASTLQSGVPSRFSGSGSGTDFTLTISSLQPEDFATYYCQQANIFPLTFGGGTKVEIKR | 

Reference: patent US20240279350A1 (Sanofi, published 2024)
